From article PMC6179282

Tests used:
[1] = target: Camelus dromedarius mu-class glutathione S-transferase (CdGSTM1) (Camelus dromedarius); experiment: cross-linking; 0.25% glutaraldehyde, room temperature, 15 min, CdGSTM1 0.5 mg/mL at pH 4.0, before and after SEC; SDS-PAGE
[2] = target: Camelus dromedarius mu-class glutathione S-transferase (CdGSTM1) (Camelus dromedarius); experiment: cross-linking; 0.25% glutaraldehyde, room temperature, 15 min, CdGSTM1 0.5 mg/mL at pH 7.0, before and after SEC; SDS-PAGE
[3] = target: Camelus dromedarius mu-class glutathione S-transferase (CdGSTM1) (Camelus dromedarius); experiment: SEC; analytical Superdex 200 Increase 10/300 GL, calibrated; CdGSTM1 2.5 mg/mL (also 0.25 mg loaded) in 50 mM phosphate buffer, 150 mM NaCl, pH 7.0
[4] = target: Camelus dromedarius mu-class glutathione S-transferase (CdGSTM1) (Camelus dromedarius); experiment: SEC; Superdex 200 Increase, 0.25 mg CdGSTM1 equilibrated at pH 4.0, buffer with 150 mM NaCl at pH 4.0

Measured: stoichiometry N

Camelus dromedarius mu-class glutathione S-transferase (CdGSTM1) (enzyme)
2: [1] | [2] | [3] | [4]
